Values of other authors, collected in patent publication US20250352622A1, “GLP-1 FORMULATIONS AND THEIR USES” (Rose Pharma Inc., priority 2024, published 2025).
Like-named read-outs stand apart in the source and are kept apart here.

Substance	t1/2 (in vivo)	further results
dulaglutide		t1/2 (longer acting GLP-1 agonist): about 90 hours
lixisenatide		half-life (in vivo): about 3 hours
semaglutide	about 1 week	
tirzepatide	about 5 days	
